How the values were obtained:
[1] = molecular target: T1, TMR-phalloidin-labelled biotinylated actin filaments (Cytoskeleton) (UniProt P68135 1-377, biotin (~1 biotin per monomer)); assay: optical trap
[2] = molecular target: T1, TMR-phalloidin-labelled biotinylated …; assay: optical trap; remark: listed apart in the source

| k0 (detachment rate from actin at zero load) with F3345 [1] [s⁻¹] | k0 (detachment rate from actin at zero load) [2] [s⁻¹] | Binder |
| --- | --- | --- |
|  | 155 | human β-cardiac myosin sS1-eGFP (MYH7 1-808) R237W with essential light chain (complex) chain 1: MGDSEMAVFGAAAPYLRKSEKERLEAQTRPFDLKKDVFVPDDKQEFVKAKIVSREGGKVTAETEYGKTVTVKEDQVMQQNPPKFDKIEDMAMLTFLHEPAVLYNLKDRYGSWMIYTYSGLFCVTVNPYKWLPVYTPEVVAAYRGKKRSEAPPHIFSISDNAYQYMLTDRENQSILITGESGAGKTVNTKRVIQYFAVIAAIGDRSKKDQSPGKGTLEDQIIQANPALEAFGNAKTVWNDNSSRFGKFIRIHFGATGKLASADIETYLLEKSRVIFQLKAERDYHIFYQILSNKKPELLDMLLITNNPYDYAFISQGETTVASIDDAEELMATDNAFDVLGFTSEEKNSMYKLTGAIMHFGNMKFKLKQREEQAEPDGTEEADKSAYLMGLNSADLLKGLCHPRVKVGNEYVTKGQNVQQVIYATGALAKAVYERMFNWMVTRINATLETKQPRQYFIGVLDIAGFEIFDFNSFEQLCINFTNEKLQQFFNHHMFVLEQEEYKKEGIEWTFIDFGMDLQACIDLIEKPMGIMSILEEECMFPKATDMTFKAKLFDNHLGKSANFQKPRNIKGKPEAHFSLIHYAGIVDYNIIGWLQKNKDPLNETVVGLYQKSSLKLLSTLFANYAGADAPIEKGKGKAKKGSSFQTVSALHRENLNKLMTNLRSTHPHFVRCIIPNETKSPGVMDNPLVMHQLRCNGVLEGIRICRKGFPNRILYGDFRQRYRILNPAAIPEGQFIDSRKGAEKLLSSLDIDHNQYKFGHTKVFFKAGLLGLLEEMRDERLSRIITRIQAQSRGVLARMEYKKLLERR chain 2: not shown |
| 20 | 152 | human β-cardiac myosin sS1-eGFP (MYH7 1-808) H251N with essential light chain (complex) chain 1: MGDSEMAVFGAAAPYLRKSEKERLEAQTRPFDLKKDVFVPDDKQEFVKAKIVSREGGKVTAETEYGKTVTVKEDQVMQQNPPKFDKIEDMAMLTFLHEPAVLYNLKDRYGSWMIYTYSGLFCVTVNPYKWLPVYTPEVVAAYRGKKRSEAPPHIFSISDNAYQYMLTDRENQSILITGESGAGKTVNTKRVIQYFAVIAAIGDRSKKDQSPGKGTLEDQIIQANPALEAFGNAKTVRNDNSSRFGKFIRINFGATGKLASADIETYLLEKSRVIFQLKAERDYHIFYQILSNKKPELLDMLLITNNPYDYAFISQGETTVASIDDAEELMATDNAFDVLGFTSEEKNSMYKLTGAIMHFGNMKFKLKQREEQAEPDGTEEADKSAYLMGLNSADLLKGLCHPRVKVGNEYVTKGQNVQQVIYATGALAKAVYERMFNWMVTRINATLETKQPRQYFIGVLDIAGFEIFDFNSFEQLCINFTNEKLQQFFNHHMFVLEQEEYKKEGIEWTFIDFGMDLQACIDLIEKPMGIMSILEEECMFPKATDMTFKAKLFDNHLGKSANFQKPRNIKGKPEAHFSLIHYAGIVDYNIIGWLQKNKDPLNETVVGLYQKSSLKLLSTLFANYAGADAPIEKGKGKAKKGSSFQTVSALHRENLNKLMTNLRSTHPHFVRCIIPNETKSPGVMDNPLVMHQLRCNGVLEGIRICRKGFPNRILYGDFRQRYRILNPAAIPEGQFIDSRKGAEKLLSSLDIDHNQYKFGHTKVFFKAGLLGLLEEMRDERLSRIITRIQAQSRGVLARMEYKKLLERR chain 2: not shown |
|  | 80 | human β-cardiac myosin sS1-eGFP (MYH7 1-808) S532P with essential light chain (complex) chain 1: MGDSEMAVFGAAAPYLRKSEKERLEAQTRPFDLKKDVFVPDDKQEFVKAKIVSREGGKVTAETEYGKTVTVKEDQVMQQNPPKFDKIEDMAMLTFLHEPAVLYNLKDRYGSWMIYTYSGLFCVTVNPYKWLPVYTPEVVAAYRGKKRSEAPPHIFSISDNAYQYMLTDRENQSILITGESGAGKTVNTKRVIQYFAVIAAIGDRSKKDQSPGKGTLEDQIIQANPALEAFGNAKTVRNDNSSRFGKFIRIHFGATGKLASADIETYLLEKSRVIFQLKAERDYHIFYQILSNKKPELLDMLLITNNPYDYAFISQGETTVASIDDAEELMATDNAFDVLGFTSEEKNSMYKLTGAIMHFGNMKFKLKQREEQAEPDGTEEADKSAYLMGLNSADLLKGLCHPRVKVGNEYVTKGQNVQQVIYATGALAKAVYERMFNWMVTRINATLETKQPRQYFIGVLDIAGFEIFDFNSFEQLCINFTNEKLQQFFNHHMFVLEQEEYKKEGIEWTFIDFGMDLQACIDLIEKPMGIMPILEEECMFPKATDMTFKAKLFDNHLGKSANFQKPRNIKGKPEAHFSLIHYAGIVDYNIIGWLQKNKDPLNETVVGLYQKSSLKLLSTLFANYAGADAPIEKGKGKAKKGSSFQTVSALHRENLNKLMTNLRSTHPHFVRCIIPNETKSPGVMDNPLVMHQLRCNGVLEGIRICRKGFPNRILYGDFRQRYRILNPAAIPEGQFIDSRKGAEKLLSSLDIDHNQYKFGHTKVFFKAGLLGLLEEMRDERLSRIITRIQAQSRGVLARMEYKKLLERR chain 2: not shown |

The remaining lines, values behind:

| Binder | k0 (detachment rate from actin at zero load) with F3345 [1] [s⁻¹] | k0 (detachment rate from actin at zero load) [2] [s⁻¹] |
| --- | --- | --- |
| human β-cardiac myosin subfragment-1 (short S1, sS1 (complex) chain 1: MGDSEMAVFGAAAPYLRKSEKERLEAQTRPFDLKKDVFVPDDKQEFVKAKIVSREGGKVTAETEYGKTVTVKEDQVMQQNPPKFDKIEDMAMLTFLHEPAVLYNLKDRYGSWMIYTYSGLFCVTVNPYKWLPVYTPEVVAAYRGKKRSEAPPHIFSISDNAYQYMLTDRENQSILITGESGAGKTVNTKRVIQYFAVIAAIGDRSKKDQSPGKGTLEDQIIQANPALEAFGNAKTVRNDNSSRFGKFIRIHFGATGKLASADIETYLLEKSRVIFQLKAERDYHIFYQILSNKKPELLDMLLITNNPYDYAFISQGETTVASIDDAEELMATDNAFDVLGFTSEEKNSMYKLTGAIMHFGNMKFKLKQREEQAEPDGTEEADKSAYLMGLNSADLLKGLCHPRVKVGNEYVTKGQNVQQVIYATGALAKAVYERMFNWMVTRINATLETKQPRQYFIGVLDIAGFEIFDFNSFEQLCINFTNEKLQQFFNHHMFVLEQEEYKKEGIEWTFIDFGMDLQACIDLIEKPMGIMSILEEECMFPKATDMTFKAKLFDNHLGKSANFQKPRNIKGKPEAHFSLIHYAGIVDYNIIGWLQKNKDPLNETVVGLYQKSSLKLLSTLFANYAGADAPIEKGKGKAKKGSSFQTVSALHRENLNKLMTNLRSTHPHFVRCIIPNETKSPGVMDNPLVMHQLRCNGVLEGIRICRKGFPNRILYGDFRQRYRILNPAAIPEGQFIDSRKGAEKLLSSLDIDHNQYKFGHTKVFFKAGLLGLLEEMRDERLSRIITRIQAQSRGVLARMEYKKLLERR chain 2: not shown | 36 |  |
| human β-cardiac myosin sS1-eGFP (MYH7 1-808) A223T with essential light chain (complex) chain 1: MGDSEMAVFGAAAPYLRKSEKERLEAQTRPFDLKKDVFVPDDKQEFVKAKIVSREGGKVTAETEYGKTVTVKEDQVMQQNPPKFDKIEDMAMLTFLHEPAVLYNLKDRYGSWMIYTYSGLFCVTVNPYKWLPVYTPEVVAAYRGKKRSEAPPHIFSISDNAYQYMLTDRENQSILITGESGAGKTVNTKRVIQYFAVIAAIGDRSKKDQSPGKGTLEDQIIQTNPALEAFGNAKTVRNDNSSRFGKFIRIHFGATGKLASADIETYLLEKSRVIFQLKAERDYHIFYQILSNKKPELLDMLLITNNPYDYAFISQGETTVASIDDAEELMATDNAFDVLGFTSEEKNSMYKLTGAIMHFGNMKFKLKQREEQAEPDGTEEADKSAYLMGLNSADLLKGLCHPRVKVGNEYVTKGQNVQQVIYATGALAKAVYERMFNWMVTRINATLETKQPRQYFIGVLDIAGFEIFDFNSFEQLCINFTNEKLQQFFNHHMFVLEQEEYKKEGIEWTFIDFGMDLQACIDLIEKPMGIMSILEEECMFPKATDMTFKAKLFDNHLGKSANFQKPRNIKGKPEAHFSLIHYAGIVDYNIIGWLQKNKDPLNETVVGLYQKSSLKLLSTLFANYAGADAPIEKGKGKAKKGSSFQTVSALHRENLNKLMTNLRSTHPHFVRCIIPNETKSPGVMDNPLVMHQLRCNGVLEGIRICRKGFPNRILYGDFRQRYRILNPAAIPEGQFIDSRKGAEKLLSSLDIDHNQYKFGHTKVFFKAGLLGLLEEMRDERLSRIITRIQAQSRGVLARMEYKKLLERR chain 2: not shown |  | 104 |
| human β-cardiac myosin sS1-eGFP (MYH7 1-808) D239N with essential light chain (complex) chain 1: MGDSEMAVFGAAAPYLRKSEKERLEAQTRPFDLKKDVFVPDDKQEFVKAKIVSREGGKVTAETEYGKTVTVKEDQVMQQNPPKFDKIEDMAMLTFLHEPAVLYNLKDRYGSWMIYTYSGLFCVTVNPYKWLPVYTPEVVAAYRGKKRSEAPPHIFSISDNAYQYMLTDRENQSILITGESGAGKTVNTKRVIQYFAVIAAIGDRSKKDQSPGKGTLEDQIIQANPALEAFGNAKTVRNNNSSRFGKFIRIHFGATGKLASADIETYLLEKSRVIFQLKAERDYHIFYQILSNKKPELLDMLLITNNPYDYAFISQGETTVASIDDAEELMATDNAFDVLGFTSEEKNSMYKLTGAIMHFGNMKFKLKQREEQAEPDGTEEADKSAYLMGLNSADLLKGLCHPRVKVGNEYVTKGQNVQQVIYATGALAKAVYERMFNWMVTRINATLETKQPRQYFIGVLDIAGFEIFDFNSFEQLCINFTNEKLQQFFNHHMFVLEQEEYKKEGIEWTFIDFGMDLQACIDLIEKPMGIMSILEEECMFPKATDMTFKAKLFDNHLGKSANFQKPRNIKGKPEAHFSLIHYAGIVDYNIIGWLQKNKDPLNETVVGLYQKSSLKLLSTLFANYAGADAPIEKGKGKAKKGSSFQTVSALHRENLNKLMTNLRSTHPHFVRCIIPNETKSPGVMDNPLVMHQLRCNGVLEGIRICRKGFPNRILYGDFRQRYRILNPAAIPEGQFIDSRKGAEKLLSSLDIDHNQYKFGHTKVFFKAGLLGLLEEMRDERLSRIITRIQAQSRGVLARMEYKKLLERR chain 2: not shown | 24 | 140 |

Reference: doi:10.1101/258020 (bioRxiv, 2018)
